Experimental data as given in paper PMC4890040.
One block for each substance: values may come before it.

How the values were obtained:
Experiment in all cases: SEC; protein alone, prior to DNA binding; Superdex 200, 20 mM Tris pH 7.5, 0.2 M NaCl, 5 mM DTT, 4 °C, 50 μL/min; peaks assigned to monomer and dimer by elution times
[1] = target: L-Tgf2TPase(D228N, E648Q) (goldfish (Carassius auratus))
[2] = target: S1-Tgf2TPase (truncated Tgf2 transposase, 110-686 aa) (goldfish (Carassius auratus))
[3] = target: S2-Tgf2TPase (truncated Tgf2 transposase, 124-686 aa) (goldfish (Carassius auratus))
[4] = target: full length Tgf2 transposase (L-Tgf2TPase) (goldfish (Carassius auratus))

stoichiometry N [1]: 2
Substance: L-Tgf2TPase(D228N, E648Q) (enzyme)

stoichiometry N [2]: 2
Substance: S1-Tgf2TPase (truncated Tgf2 transposase, 110-686 aa) (domain or fragment)

stoichiometry N [3]: 2
Substance: S2-Tgf2TPase (truncated Tgf2 transposase, 124-686 aa) (domain or fragment)

stoichiometry N [4]: 2
Substance: full length Tgf2 transposase (L-Tgf2TPase) (enzyme)
